Test results as given in IntAct's records for PubMed 15378002.

B1: Transcription factor Jun (Homo sapiens), P05412 (parent)
chain: MTAKMETTFYDDALNASFLPSESGPYGYSNPKILKQSMTLNLADPVGSLKPHLRAKNSDLLTSPDVGLLKLASPELERLIIQSSNGHITTTPTPTQFLCPKNVTDEQEGFAEGFVRALAELHSQNTLPSVTSAAQPVNGAGMVAPAVASVAGGSGSGGFSASLHSEPPVYANLSNFNPGALSSGGGAPSYGAAGLAFPAQPQQQQQPPHHLPQQMPVQHPRLQALKEEPQTVPEMPGETPPLSPIDMESQERIKAERKRMRNRIAASKCRKRKLERIARLEEKVKTLKAQNSELASTANMLREQVAQLKQKVMNHVNSGCQLMLTQQLQTF
partner: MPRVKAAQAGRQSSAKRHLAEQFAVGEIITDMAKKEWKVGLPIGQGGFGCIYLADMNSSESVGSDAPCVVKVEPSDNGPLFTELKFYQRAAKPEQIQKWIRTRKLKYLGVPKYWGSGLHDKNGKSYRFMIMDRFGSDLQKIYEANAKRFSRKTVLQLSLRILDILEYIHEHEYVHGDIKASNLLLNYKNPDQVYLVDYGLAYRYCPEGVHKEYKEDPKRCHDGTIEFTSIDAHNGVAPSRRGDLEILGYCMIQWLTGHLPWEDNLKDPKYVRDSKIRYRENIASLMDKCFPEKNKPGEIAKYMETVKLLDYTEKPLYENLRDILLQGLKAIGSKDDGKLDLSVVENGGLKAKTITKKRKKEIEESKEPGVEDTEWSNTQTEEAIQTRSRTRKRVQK
B2: Serine/threonine-protein kinase VRK1 (Homo sapiens), Q99986 (parent)
chain: B1 partner

Variants of: B1
Conditions: with vrk1_human VRK1, Q99986

| effect of a mutation on the interaction | Variant |
| --- | --- |
| decreasing interaction | S63A;S73A |

Variants of: B2
Conditions: with jun_human JUN, P05412

| effect of a mutation on the interaction | Variant |
| --- | --- |
| disrupting interaction | K179E |
